Assay results taken from patent US20200317768A1 (published 2020).

T1: human FcγRIIaR extracellular domain, C-terminal His-tag (human, UniProt P12318 34-217)
T1 construct: also called human FcγRIIa (type R); FcgRIIaR; not shown: His-tag added to C-terminus
T1 chain: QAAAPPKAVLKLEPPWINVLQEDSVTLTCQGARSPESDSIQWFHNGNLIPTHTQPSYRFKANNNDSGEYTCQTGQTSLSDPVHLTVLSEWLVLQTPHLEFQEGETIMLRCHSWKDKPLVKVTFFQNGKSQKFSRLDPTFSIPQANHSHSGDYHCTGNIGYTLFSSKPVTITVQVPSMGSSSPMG


Target: T1, human FcγRIIaR extracellular domain, …
Assay: SPR (Biacore), KD of SG1 / KD of variant;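 also: relative to parent M103205H795-SG1 carrying the SG1 human heavy chain constant region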

KD fold (SG1 = 1)	Binder
1.7 fold	M103205H795-MY242/M103202L889-SK1 (antibody, human IgG1, kappa) heavy: QVTLKESGPVLVKPTETLTLTCTVSGIDLSHDDISWVRQAPGKGLEWVGIISYAGSTYYASWAKGRLTISKDTSKNQVVLTMTNMDPVDTATYYCARGVPAYSHGGDLWGQGTLVTVSSASTKGPSVFPLAPSSKSTSGGTAALGCLVKDYFPEPVTVSWNSGALTSGVHTFPAVLQSSGLYSLSSVVTVPSSSLGTQTYICNVNHKPSNTKVDKKVEPKSCDKTHTCPPCPAPELLGGISVFLFPPKPKDTLMISRTPEVTCVVVDVSDEDPEVKFNWYVDGVEVHNAKTKPREEQYNSTYRVVSVLTVLHQDWLNGKEYKCKVSNKALPKPIEKTISKAKGQPREPQVYTLPPSREEMTKNQVSLTCLVKGFYPSDIAVEWESNGQPENNYKTTPKVLDSDGSFFLYSKLTVDKSRWQQGNVFSCSVMHEALHNHYTQKSLSLSP light: DIVMTQSPATLSLSPGERATLSCTSSQSVYHANWLSWFQQKPGQPPKLLIYWASTLAYGVPSRFSGSGSGTDFTLTISSLQPEDAATYYCAGGYGGGRYAFGQGTKVEIKRTVAAPSVFIFPPSDEQLKSGTASVVCLLNNFYPREAKVQWKVDNALQSGNSQESVTEQDSKDSTYSLSSTLTLSKADYEKHKVYACEVTHQGLSSPVTKSFNRGEC
4.8 fold	M103205H795-MY271/M103202L889-SK1 (antibody, human IgG1, kappa) heavy: QVTLKESGPVLVKPTETLTLTCTVSGIDLSHDDISWVRQAPGKGLEWVGIISYAGSTYYASWAKGRLTISKDTSKNQVVLTMTNMDPVDTATYYCARGVPAYSHGGDLWGQGTLVTVSSASTKGPSVFPLAPSSKSTSGGTAALGCLVKDYFPEPVTVSWNSGALTSGVHTFPAVLQSSGLYSLSSVVTVPSSSLGTQTYICNVNHKPSNTKVDKKVEPKSCDKTHTCPPCPAPELLVGPSVFLFPPKPKDTLMISRTPEVTCVVVDVSDEDPEVKFNWYVDGVEVHNAKTKPREEQYNSTYRVVSVLTVLHQDWLNGKEYKCKVSNKALPKPIEKTISKAKGQPREPQVYTLPPSREEMTKNQVSLTCLVKGFYPSDIAVEWESNGQPENNYKTTPKVLDSDGSFFLYSKLTVDKSRWQQGNVFSCSVMHEALHNHYTQKSLSLSP light: DIVMTQSPATLSLSPGERATLSCTSSQSVYHANWLSWFQQKPGQPPKLLIYWASTLAYGVPSRFSGSGSGTDFTLTISSLQPEDAATYYCAGGYGGGRYAFGQGTKVEIKRTVAAPSVFIFPPSDEQLKSGTASVVCLLNNFYPREAKVQWKVDNALQSGNSQESVTEQDSKDSTYSLSSTLTLSKADYEKHKVYACEVTHQGLSSPVTKSFNRGEC
1.1 fold	M103205H795-MY273/M103202L889-SK1 (antibody, human IgG1, kappa) heavy: QVTLKESGPVLVKPTETLTLTCTVSGIDLSHDDISWVRQAPGKGLEWVGIISYAGSTYYASWAKGRLTISKDTSKNQVVLTMTNMDPVDTATYYCARGVPAYSHGGDLWGQGTLVTVSSASTKGPSVFPLAPSSKSTSGGTAALGCLVKDYFPEPVTVSWNSGALTSGVHTFPAVLQSSGLYSLSSVVTVPSSSLGTQTYICNVNHKPSNTKVDKKVEPKSCDKTHTCPPCPAPELLLGPSVFLFPPKPKDTLMISRTPEVTCVVVDVSDEDPEVKFNWYVDGVEVHNAKTKPREEQYNSTYRVVSVLTVLHQDWLNGKEYKCKVSNKALPKPIEKTISKAKGQPREPQVYTLPPSREEMTKNQVSLTCLVKGFYPSDIAVEWESNGQPENNYKTTPKVLDSDGSFFLYSKLTVDKSRWQQGNVFSCSVMHEALHNHYTQKSLSLSP light: DIVMTQSPATLSLSPGERATLSCTSSQSVYHANWLSWFQQKPGQPPKLLIYWASTLAYGVPSRFSGSGSGTDFTLTISSLQPEDAATYYCAGGYGGGRYAFGQGTKVEIKRTVAAPSVFIFPPSDEQLKSGTASVVCLLNNFYPREAKVQWKVDNALQSGNSQESVTEQDSKDSTYSLSSTLTLSKADYEKHKVYACEVTHQGLSSPVTKSFNRGEC
3.1 fold	M103205H795-MY270/M103202L889-SK1 (antibody, human IgG1, kappa) heavy: QVTLKESGPVLVKPTETLTLTCTVSGIDLSHDDISWVRQAPGKGLEWVGIISYAGSTYYASWAKGRLTISKDTSKNQVVLTMTNMDPVDTATYYCARGVPAYSHGGDLWGQGTLVTVSSASTKGPSVFPLAPSSKSTSGGTAALGCLVKDYFPEPVTVSWNSGALTSGVHTFPAVLQSSGLYSLSSVVTVPSSSLGTQTYICNVNHKPSNTKVDKKVEPKSCDKTHTCPPCPAPELLHGPSVFLFPPKPKDTLMISRTPEVTCVVVDVSDEDPEVKFNWYVDGVEVHNAKTKPREEQYNSTYRVVSVLTVLHQDWLNGKEYKCKVSNKALPKPIEKTISKAKGQPREPQVYTLPPSREEMTKNQVSLTCLVKGFYPSDIAVEWESNGQPENNYKTTPKVLDSDGSFFLYSKLTVDKSRWQQGNVFSCSVMHEALHNHYTQKSLSLSP light: DIVMTQSPATLSLSPGERATLSCTSSQSVYHANWLSWFQQKPGQPPKLLIYWASTLAYGVPSRFSGSGSGTDFTLTISSLQPEDAATYYCAGGYGGGRYAFGQGTKVEIKRTVAAPSVFIFPPSDEQLKSGTASVVCLLNNFYPREAKVQWKVDNALQSGNSQESVTEQDSKDSTYSLSSTLTLSKADYEKHKVYACEVTHQGLSSPVTKSFNRGEC
4.4 fold	M103205H795-MY272/M103202L889-SK1 (antibody, human IgG1, kappa) heavy: QVTLKESGPVLVKPTETLTLTCTVSGIDLSHDDISWVRQAPGKGLEWVGIISYAGSTYYASWAKGRLTISKDTSKNQVVLTMTNMDPVDTATYYCARGVPAYSHGGDLWGQGTLVTVSSASTKGPSVFPLAPSSKSTSGGTAALGCLVKDYFPEPVTVSWNSGALTSGVHTFPAVLQSSGLYSLSSVVTVPSSSLGTQTYICNVNHKPSNTKVDKKVEPKSCDKTHTCPPCPAPELLQGPSVFLFPPKPKDTLMISRTPEVTCVVVDVSDEDPEVKFNWYVDGVEVHNAKTKPREEQYNSTYRVVSVLTVLHQDWLNGKEYKCKVSNKALPKPIEKTISKAKGQPREPQVYTLPPSREEMTKNQVSLTCLVKGFYPSDIAVEWESNGQPENNYKTTPKVLDSDGSFFLYSKLTVDKSRWQQGNVFSCSVMHEALHNHYTQKSLSLSP light: DIVMTQSPATLSLSPGERATLSCTSSQSVYHANWLSWFQQKPGQPPKLLIYWASTLAYGVPSRFSGSGSGTDFTLTISSLQPEDAATYYCAGGYGGGRYAFGQGTKVEIKRTVAAPSVFIFPPSDEQLKSGTASVVCLLNNFYPREAKVQWKVDNALQSGNSQESVTEQDSKDSTYSLSSTLTLSKADYEKHKVYACEVTHQGLSSPVTKSFNRGEC
1.5 fold	M103205H795-MY269/M103202L889-SK1 (antibody, human IgG1, kappa) heavy: QVTLKESGPVLVKPTETLTLTCTVSGIDLSHDDISWVRQAPGKGLEWVGIISYAGSTYYASWAKGRLTISKDTSKNQVVLTMTNMDPVDTATYYCARGVPAYSHGGDLWGQGTLVTVSSASTKGPSVFPLAPSSKSTSGGTAALGCLVKDYFPEPVTVSWNSGALTSGVHTFPAVLQSSGLYSLSSVVTVPSSSLGTQTYICNVNHKPSNTKVDKKVEPKSCDKTHTCPPCPAPELLMGPSVFLFPPKPKDTLMISRTPEVTCVVVDVSDEDPEVKFNWYVDGVEVHNAKTKPREEQYNSTYRVVSVLTVLHQDWLNGKEYKCKVSNKALPKPIEKTISKAKGQPREPQVYTLPPSREEMTKNQVSLTCLVKGFYPSDIAVEWESNGQPENNYKTTPKVLDSDGSFFLYSKLTVDKSRWQQGNVFSCSVMHEALHNHYTQKSLSLSP light: DIVMTQSPATLSLSPGERATLSCTSSQSVYHANWLSWFQQKPGQPPKLLIYWASTLAYGVPSRFSGSGSGTDFTLTISSLQPEDAATYYCAGGYGGGRYAFGQGTKVEIKRTVAAPSVFIFPPSDEQLKSGTASVVCLLNNFYPREAKVQWKVDNALQSGNSQESVTEQDSKDSTYSLSSTLTLSKADYEKHKVYACEVTHQGLSSPVTKSFNRGEC
